Bridge positions count the residues as written; N and C are the ends. Ends that are not written are not given here.
What was measured:
[1] = target: VEGF (form and enantiomer not stated at paragraph 530); assay: Octet-SPR, preliminary estimate, reference RFX001
[2] = target: VEGF (form and enantiomer not stated at paragraph 530); assay: standard SPR, preliminary estimate, reference RFX001

VEGF (form and enantiomer not stated at paragraph 530), sequence (P15692 whole entry): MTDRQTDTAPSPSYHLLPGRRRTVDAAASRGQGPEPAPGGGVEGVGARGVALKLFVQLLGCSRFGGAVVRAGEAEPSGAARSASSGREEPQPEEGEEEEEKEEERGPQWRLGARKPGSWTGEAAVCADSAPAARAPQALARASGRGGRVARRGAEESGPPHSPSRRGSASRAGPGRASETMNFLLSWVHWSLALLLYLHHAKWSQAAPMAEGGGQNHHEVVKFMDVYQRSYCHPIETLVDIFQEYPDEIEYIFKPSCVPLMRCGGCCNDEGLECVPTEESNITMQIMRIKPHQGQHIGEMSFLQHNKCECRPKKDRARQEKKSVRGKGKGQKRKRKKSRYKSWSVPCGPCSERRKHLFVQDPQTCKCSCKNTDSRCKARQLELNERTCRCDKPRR

B1: RFX002 (enantiomer and preparation not stated at paragraph 530) (designed binder)
chain: TYKMILNGKTLKSECTTEAVDLFDAFDVLFVCAASNFSFIDDWTYDDATKTFTVTE
modifications: disulfide 15-32 (inferred); also: enantiomer (L- or D-form) not given here
- fold increase of binding affinity against RFX001 [1]: ~5 fold
- fold increase of binding affinity against RFX001 [2]: ~2 fold

Reference: patent US20120178682A1 (published 2012)
